In publication PMC2699497:

B1: unlabeled 10-mer nontarget duplex (NMR) (dsDNA)
DNA 1: CTGGATCCAG
DNA 2: CTGGATCCAG
B2: 5'-FAM 10-mer nontarget duplex (dsDNA)
DNA 1: TCGATCGATG
DNA 2: CATCGATCGA

Experiments:
[1] = target: T1, human uracil DNA glycosylase (UNG) (human, UniProt P13051 94-313); test: NMR HSQC titration, relaxation dispersion
[2] = target: T1, human uracil DNA glycosylase (UNG); test: fluorescence anisotropy

T1 sequence (P13051 94-313): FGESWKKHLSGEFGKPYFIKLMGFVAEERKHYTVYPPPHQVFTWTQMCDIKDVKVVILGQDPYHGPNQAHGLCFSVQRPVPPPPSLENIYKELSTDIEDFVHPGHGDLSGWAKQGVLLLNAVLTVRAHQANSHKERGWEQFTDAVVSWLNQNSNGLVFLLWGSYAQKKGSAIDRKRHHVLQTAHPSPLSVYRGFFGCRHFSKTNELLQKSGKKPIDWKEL

Binder	binding result [1]	Kd [2] [µM]
B1	binds	
B2		29 ± 0.4
